# Assay results: a protein production outcome set (Wang et al. 2014)
# Assay: label from the status in PepcDB records
# 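Also: failed if final PepcDB status was selected cloned or expressed and not failed if soluble or beyond.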
row,Sequence,protein production
1,MSHWLILPILLPLFAGSLLLLPLAERWQRGLSLLAALALIPLSLLLIRTAASGDLSVYALGNWAAPFGIVLMLDRLAALMLLATAVLGSAALIYALRGEDRLGKHFHALFQFQLLGINGAFLTGDLFNLFVFFEILLIASYALLLHGGGAERVRSGLHYVILNLVGSAFFLIAVGTLYGLTGTLNMADMAQKIAMADAERAPLLAAAGLLLLVVFALKAALLPLYFWLPRAYATASAPVAALFAIMTKVGIYSILRVYTLVFGDAAGELANLAQAWLWPLALATLGLGAIGALAARTLQGLLAYLVVVSAGTLLAGVALGSERALAASLYYLLHSTWIAGGLFLLADLVARQRGDKAGDLVQGPALQNPRLLGGAFFIGAIAVAGLPPLSGFFGKVMLLQSVAPGSQALALWSVVLGSGLVALVALSRAGSTLFWRTGHTVLGSAELDHGRLFACILLLSAGPLLVFAAKPLLAYVQATAAQLHDLDLYRQIITRGGAA,failed
2,MSHYNPEQLNFVNNHRNNVKEGYFYKNNLLKENNNKMESSKNCIMVPLINNPSHSENNFSKNNRDENINEEKSKYQFEYQNKIIQVPELKYVDKMVYDPVIIEKVKYVPKEVIKYNIIKKPVIKNIITEKKVDVLQVKEKISFKEEEIVEDVYNYVDKDLNTKWNESQYDNEMYKDLTKKKNYIGQNHLLPNNINKMGHINDRTYKHINNNITNLLEPFGPQIDVEENKIIENVFVPNVEKVIEVNKKIDIPINLPVPYIVPKPKIIDVDVPVFKFNDKYVPVPVSKKIIPKITWTDKIYQVDCLIEKPYLVYHNIIKMVPTDSKITVREYPKGIKKINPEELYEVDNLALWMRVNADLKQEHDQMKNEKYETNKKKGKGETEQLDDNISSDHTCECSESYETYEKLSNEEFNSSNEETTIKSSNENILDTLPLHPGHPLEFIHLQNKWINQDTTNIPDMYDQKYLDAHRNAVFNLTTQMPREAEVEAKQLLYIQKKLQQEETL,failed
3,MSIEAKFKKLGTDNAPGQEVRQSAAGLEALIRGAPIEGRPVDFSHGDVDAHEPTPGAFDLFSAGVQSGGVQAYTEYRGDLGIRDLLAPRLAAFTGAPVDARDGLIITPGTQGALFLAVAATVARGDKVAIVQPDYFANRKLVEFFEGEMVPVQLDYVSADETRAGLDLTGLEEAFKAGARVFLFSNPNNPAGVVYSAEEIGQIAALAARYGATVIADQLYSRLRYAGASYTHLRAEAAVDAENVVTIMGPSKTESLSGYRLGVAFGSRAIIARMEKLQAIVSLRAAGYSQAVLRGWFDEAPGWMEDRIARHQAIRDELLHVLRGCEGVFARTPQAGSYLFPRLPKLAVAPAEFVKILRLQAGVVVTPGTEFSPHTADSVRLNFSQDHEAAVAAARRIVTLVERYRA,not failed
4,MSIESLWSSRFQQHIQNIITYFARMINGLLYSFIFISCVGAYYYAQFLKASPSKGISLIIITIVLTFIITRCPIRTFIQKPDAVYLLALEEKLTSYFKKSLLYNYIMQLFPLLFTFLILVPLAMQSLQLTVPFLCTIFIVLMITKAWNMYIHWMWRDSHEKNIWLIIRITCNALIIYMLFYSANVLILGGLLLLLAFLLLYTKKQPTKRIPWDYIIEQEEKMNVRFYQFASIFTDVPQLNKQVNKRKWLTNWIEPLLHKKRATFFYLHTLAFLRGNDYFGIYIRLRLIGAFALYFIPNIYVKGAIAYIVLYMISMQLRSLWKYFSGNIIVALYPIHTEERMKQFLHLIFILLSIQLIVFSSVILIATGQFLHILIIMIVGLLWIKFIIVPKTKQRISAF,failed
5,MSIITRLFNNSDFEKLNQLCKLYDDLGYPTNENDLKKRLKKITNHDDYFLLLLIKENKIIGLSGMCKMMFYEKNAEYMRILAFVIHSEFRKKGYGKRLLADSEEFSKRLNCKAITLNSGNRNERLSAHKLYSDNGYVSNTSGFTKQL,not failed
6,MSIKVGDVFKYERRFTEEEVFEFANITGDKGRHHMEYDENGRLMVHGLLTASIGTKVGEELHYIARELVSEFIRPVFAGDTITCELTLTNVEQMEGYKKVSIESVYRNQNEKTVLVGTSYGVIRG,failed
7,MSILMPVRNEERFLPAALASLCRQSLTAWELIVVDDGSTDDTPELLRVAAARDRRVRVFNNAGAGLVDALNYGLAHCRAELVARMDGDDISHPQRLERQAAALDADPGLGLVATRFRHFPRHSVGLGMRAYEEWQNGLLTHEEIMRDRFVESPVVHPSVMARRQALTDAGGYRKTGWAEDYDLWLRLAAGGVRFTRLPEVLFFWRERPERATRTMGEYAADAFRACKIHHLCQGFLLGVDNVTLAGAGLEGRAWQRALAREGVRVGRWLDVDPRKQGRILHGAPVTAPDDVRAGAEKILVTVGTRGARDGVRAWARRAGLREGEDFVCVTLEHHHHHH,failed
8,MSINDVAKLFGSAWIVMMADVDAASILTGVADGQTYGYRLIILLLVLTLPLYIVQEAAGRVGAVNNGKGLGTLLREKFSQKFALTAAIPMFLVDLFTYVVEYVGIAVGSLMIGVPVYISLPLFFVIHLSIVLTRTYEKMEKTLLGISFFLVIAFIVQAFLRGVSPNQQLLYFSASKSFLFFLAANIGAVVMPFMIFYQASATAYKYNNSALSKDVKVKWSSMETFIGALVSELLMVAIEISTTGLSSSIDPLNYREMSYALSAISGIYSPYVFGIGLICGGLLALIVESLGSAWGTLEALNKHNHRNTTLLYVFESVPAIIIASIFSQNYDQIVNTVLSLMSVTPIIVFIPAFFVGLLVGDEKIMGKYSYSRRRMVIYWITVVILLISGIMSLL,failed
9,MSINPYVTIFLLLAATSSQALSISLADPCTVSDFPALCRSTIKGQTNVNAATDVAIKELMKRTRQAKKIAEKELKRDGGVATCLSNFNSAFDNLEKALTNIKENDGFSLNINLSAALTDYDTCSDSMKETKEVNVIYKSAGVLYRMADNCLALSTLVKH,failed
10,MSIPNGGSHQSLEALLAAYDFRLRHEPRNCTLWNNRGILLERLNRWTEALASYNCALEITPQRQEALNNRAIVLEHLGRLPEAVESYEQALAIDRQQPEVWNNRGIVLRKLGRLEDAIASYQQAIALAAHYAQAWANCGFALWQQGRYREAVRHYEQSVAIDPDQSSAWRQLGQIYLSVDQPDQALRCLDQAIALQPQQATAWTWRGHALYNLGQYAAALTSYENAELLGDRPLLLSIQRGHTLAQLERYEEALASYAAILPQLTGEAAAEVAYYQGLVWAYLQDWTAALAAFDQAIAGNPDLAEAWYNRAALHARLDQPVAAIADLQQAIALDPDTYRSLAAEDPDYQTLHAHPDWIQLQRA,failed
11,MSIPSFLKLVEIQTKIASVFPFMLGTLFVVYQYDMFKPINTLIIFGSMLIFDLTTTAINNYMDYRKATDNHDYDYRTTSNVIGQEQIPVRTVIITIFLMFFIATGLGVWLVFRTDLLVLLIGFVCFCIGILYTFGPVPLSRMPLGEIFSGVTMGFGIFFLAVYVNAYDAGIANLLWQGEMVTIQFNLIEIIRIGVVSLPCIFTIANIMLANNLCDLDEDIRNHRYTLPYYIGRKMGVLLFNTLYYASFLAVVVSVAINFLHPIMLLSLITIYPVYRNLVKFNKEQVKSKTFVIGIRNFVLINATLTILMAVSVVLQQLT,failed
12,MSIREVIMDYLENSSKKALSVEELSVALHMNKAKDYKVFVKTLASLEAEHLLNFTAKGKVELAEKEEAKVVISGIFRANAAGFGFVSIDAEEPDVFVARGQTAFALDGDEVFIEIDKNANALKGTSAEGHVVEIIRHDVHQVVGTFVALNDDEKEQTGLIGFVKSRNKKIPYRVYLENEGLIPENKAIVRVEITHYPDKEFPQTMQGLVTEIIGQADDQGIDVLEVLASMDIVSEFPKEVLDQAEAVPEEVPENEIVGRVDYRNEITFTIDGADAKDLDDAVHAKRLENGNYELGVHIADVSHYVTENSPLDKEAYERGTSVYVTDRVVPMLPERLSNGICSLNPRINRLTQSCVMEISPEGRVINYQISQSIIKTTERMTYDAVNQMIAGDEAALENYAKIADSVKIMVELHHILEAMRKRRGAIDFDTVEAKIIVNEKGLPIEIRKRTRGIAERMIESFMLEANETVATHFEAHGLPFIYRIHEQPKADRLQRFIDFAATFGMQIEGTSNGIDQKVLQAFMKKIKGQPGEMVLSTMLLRSMQQARYSENNEGHFGLAAENYTHFTSPIRRYPDLLVHRLIREIGEGKTPANILQKWEDKIPEIAEHSSHRERRAVDAEREVEKMKKAEFMEEHVGEEYEGIIASVTRFGMFIELENTIEGLVHISTLKGDYFNYQERMLALIGERSGLTFKIGQPIKIKVVKADRMTGEIDFEYLPSELDLIDKAAKAKKKPDHKGRKKSNQSLKVKSVAPKSTDKSANKSKNGRRADEKFEFDKKKKKSAKKPFYSKAAKGKFTDKKDNGKKFTDGRKKPHKRG,failed
13,MSIRLKTALLSGILLAILVSGLGGVLWTVVRPGFQDIERARAADHMTALLAAISADIDSIGTFILSYSSWDETYAFVRTGDPTYVANNLAVEGAKNAQSHFALVLTPKGRTVFSRLWNDDFTATLPPPDAAGGGLPANHPLMAALSHPEGVRGLLQTPRGPLAVAARPILPSNEHGPPRGVLVFGRWLTHALSDHPPLPHLSPLRLWLAPAPGDAPENVRRLLAADGPDLEIDGIGEPTSLVTAGIRLVDLEGAPVAALTTTLAKTVEPQGESIIRLALVIAALGSLGVVAVGLVSNHLMIVAPLRRLESHITTLSRTGDLDTRLVLDRKDEIGLLARAFATMQGRIRHLAHYDPLTGLPNRTLFTMLGEGALARRRADRNGGGRRVGVAILDLDRLNTLTIGLGQGGSERALVAVGRRLAALAGPADVVARGGDGRFLVLLGDLAPAQAGSIVEREAAERLASAFAKPFTPDDLVGAPLSLTASIGLALFPQDGETLETLVTHAEVAVHQAKLLGRNNFQFFDDTLNRQAREILALESALYEALADNTLSLCFQPRIDAVRGHAIELKALARWDHPSRDLIVLEDVLPLIKQDGLLAEIDRWMSNAACRQIRQWRDQGVSFPPIAIALSARPLTAGDPGLAPIAEAIAANGVDPGDLAVEIAQSAIKGQFPETKAPETQAPEDRPAEELPWPDGLAGLGLGLVIDVADAGVVSPALLRRFPLTRLTIGAALVAKLPDCRESRALVRALIALADELDLECLAEGVERGDQADWLLAAGCRLQQGLFHARPQDQTVILRWLGQTPPRGLSSPGPRDRKQDGV,failed
14,MSITERFFYLEKEPCVIYLPEKPNGFSVMLLGDYNYFIENGTSLWTQHTGRSYFLHGLIEEGYTVFSSNLYGRHWGNDQSVRLAKRLYDVVLRKETLNAKMHIMADGMGALVALEMMNKYPECIRSVIMLNPCLDLPEYVEFEKEHKFFYKRLLKELSLAYDAKEEELEA,failed
15,MSITRRDILKGAAATGAIAATSVLSGCQKTGATNSMADLAHKIKRPNLLIIFPDEMRAQALGFMGEDPSLTPNLNRFAKDSAVLKQAVSNFPLCTPFRGMLMTGQYPYRNGIQGNSHTATPGMFGGKDFGIELKKNQSTWSDILSQQGYSMGYIGKWHLDAPEAPFVPSYNNPMEGRYWNDWTTPDRRHGFDFWYSYGTYDKHLTPMYWTNDTPRDQPLHINQWSPEHEADIAIKYLRNENGNYRNNDKPFTLVVSMNPPHSPYDQVPQKYLDRFKESSRTLNSRPNVQWDKEYLEGYGPEYFKEYMAMVNGVDEQFGRIVDELDALNLAKDTLVVFFSDHGCCMGSNGNPTKNVHYEEAMRIPMMFRWPGKIAPKSDDLLFSAPDIYPTLFGLMGMDDLIPDTVEGTDFSKTVKSESGDIKPTSQFYTFMPYGGQSYGRRGIRNKQYTLMIDRKIGKPLTYVLHDNQVDPYQMKNIAEQQPELISQLIQNELMPWLEHTGDPWRPTEVPKNTANAYT,failed
